A word on the IC50: it is the concentration needed to halve the response being measured. Broadly, the Kd is the equilibrium constant for the complex coming apart.

Where a chain is given by its changes, count along the chain named. Names may count otherwise. A value given as a limit tells only on which side of the number the result lay.

The results in this text go back to patent US20090215686A1 (published 2009).

Series [1] deals with the molecule itself. Briefly: crystal structure of mouse NK1. The method, then:
Data were collected with a MAR 225 CCD detector at 5-ID (DND-CAT) of the Advance Photon Source (APS) located at Argonne National Laboratory. Crystals were flash frozen in liquid nitrogen after a quick wash in cryoprotectant solution containing 50 mM ammonium sulfate, 29% PEG 4000 or 1000 (w/w) (human or mouse NK1 respectively), 100 mM Tris-HCl pH 8.0, 0.5 or 0 mM βOG, 100 mM NaCl, and 15% ethylene glycol. Data was integrated and scaled with HKL2000 (Otwinowski and Minor, 1997). The human NK1 crystallized in space group P21, a=49.40 Å, b=51.81 Å, c=73.17 Å, and β=107.87°, and the mouse NK1 in P63 with a=b=86.49 Å, c=104.45 Å. The structure was solved by molecular replacement using the PDB coordinates 1NK1. Molecular replacement and model refinement were performed with CNS, where twin fraction was incorporated for the refinement for the mouse structure (Brunger et al., 1998). Manual model building was done with the program 0 (Jones et al., 1991).
To investigate the molecular mechanism by which NK1 induces Met dimerization, the crystal structure of mouse NK1 at a 2.4 Å resolution and a high resolution structure of human NK1 (1.8 Å) were determined for structural comparison.

In series [2] the target is T1, Met extracellular domain fragment (residues 25-567, sema domain and cysteine-rich domain) with C-terminal … (UniProt P08581 25-307; P08581 308-567).
T1 construct: also called 6his-Met; Met sema domain
Briefly: AlphaScreen competition of unlabeled ligand against biotin-NK1 binding to 6his-Met, 1 uM heparin. The method, then: (§1) The binding of NK1 to Met was determined by AlphaScreen assays using a hexahistidine detection kit from Perkin-Elmer. The experiment was performed using 10 nM biotin-NK1 and 6his-Met in the presence of 5 μg/ml donor and acceptor beads in a buffer containing 50 mM MOPS, pH7.4, 50 mM NaF, 0.05 mM CHAPS, and 0.1 mg/ml bovine serum albumin. Competition experiments were performed with 0.01 to 2.5 μM untagged ligand in the presence of 1 μM heparin and IC₅₀ values for NK1-Met interaction were determined from a nonlinear least square fit of the data. All experiments were duplicated or triplicated with standard errors typically less than 10% of the measurements. The Met dimerization assays were prepared using 40 nM of 6his-Met in the presence of 5 μg/ml nickel chelate donor and acceptor beads (Perkin-Elmer). The effect of Met ligands and heparin on Met dimerization was determined using 1 μM untagged ligand and 1 μM heparin.
To determine the binding affinities of the various NK1s for Met, competition experiments were performed using unlabeled NK1 proteins (FIG. 1E). […] These quantitative measurements thus establish that the affinities of the NK1 fragments are 10-50 folds weaker than the full-length HGF.
(In Alpha technology, singlet oxygen from a donor bead excites a nearby acceptor bead.)

Series [3] deals with T1, Met extracellular domain fragment …. Briefly: cell-based or functional assay.
Series [4] shares this target. Briefly: AlphaScreen competition against biotin-NK1 binding to 6his-Met, 1 uM heparin. The procedure:
as §1
(§2) In contrast to the Met dimerization activity, the Met binding activity of these NK1 mutants was little affected.

For series [5] the target is unchanged. In words: AlphaScreen, biotinylated NK1 and histidine-tagged Met, with against without heparin. The method, then: as §1
(§3) To determine the functional activity of the above purified proteins, the direct interactions of Met with the biotinylated NK1 were measured using AlphaScreen assays as illustrated in FIG. 1C. […] When NK1 interacts with Met, excitation of a laser beam at 680 nm causes the donor beads to emit single oxygen molecules to activate the fluorophores in the acceptor beads and a light signal is detected at 520-620 nm. […]

Series [6] has the same target. Briefly: AlphaScreen, biotinylated NK1 on streptavidin donor beads and 6his-Met on nickel chelate acceptor beads, with heparin (sheet prints '+ 1 pM HEPARIN') [d]. The method, then: as §1, §3
Series [7] shares this target. Briefly: SPR, MET567 amine-coupled to a CM5 chip, ligand in flow. From the text:
(§4) Briefly, a CM5 chip was coated with MET567 by amine coupling chemistry. Ligand was then flowed through the cell at various concentrations to allow calculation of the dissociation equilibrium (KD).
(§5) NK1 versions of the above mutants were expressed in the yeast P. pastoris and purified to homogeneity.

For series [8] the target is unchanged. Briefly: AlphaScreen competition: unlabeled NK1 mutant against biotinylated NK1 binding to 6his-Met, with heparin [b]. The method, then: as §1, §2
Series [9] has the same target. In words: SPR, MET567 amine-coupled to a CM5 chip, against wild type NK1.
From the text: as §4, §5
For orientation: In SPR one partner is held on a chip, and binding of the other changes the refractive index at the surface.

B1: mouse NK1 (ligand)
chain: YAEGQKKRRNTLHEFKKSAKTTLTKEDPLLKIKTKKVNSADECANRCIRNRGFTFTCKAFVFDKSRKRCYWYPFNSMSSGVKKGFGHEFDLYENKDYIRNCIIGKGGSYKGTVSITKSGIKCQPWNSMIPHEHSFLPSSYRGKDLQENYCRNPRGEEGGPWCFTSNPEVRYEVCDIPQCSEV
notes: also called mouse NK1 (E. coli)
In the case of B1, the binding result in series [1] is on record as “binds”. In [2], this molecule returned an IC50 of about 30 nM. Moreover, in [3], the “Met dimerization signal (AlphaScreen), 1 µM NK1 without heparin; fold label over the bar [b]” value came out at 1 fold; the “Met dimerization signal (AlphaScreen, 6his-Met on donor and acceptor beads), 1 µM NK1 with heparin; fold label over the bar [b]” value was 46 fold.

B2: human HGF NK1 (residues 28-209), expressed in E. coli (ligand)
chain: YAEGQRKRRNTIHEFKKSAKTTLIKIDPALKIKTKKVNTADQCANRCTRNKGLPFTCKAFVFDKARKQCLWFPFNSMSSGVKKEFGHEFDLYENKDYIRNCIIGKGRSYKGTVSITKSGIKCQPWSSMIPHEHSFLPSSYRGKDLQENYCRNPRGEEGGPWCFTSNPEVRYEVCDIPQCSEV
notes: Expressed as a 6xHis-thioredoxin fusion; also called human NK1; wild type NK1
B2 yielded an IC50 in [4] of 49 nM. Besides, in series [2], the concentration for half-maximal inhibition (IC50) is about 100 nM; the “fold weaker affinity than mouse NK1 and the human R134G mutant” value is 3 fold. Also, in [3], the “Met dimerization signal (AlphaScreen), 1 µM NK1 without heparin; fold label over the bar [b]” value came out at 1 fold; the “Met dimerization signal (AlphaScreen, 6his-Met on donor and acceptor beads), 1 µM NK1 with heparin; fold label over the bar [b]” value was found to be 84 fold.

B3: biotinylated human NK1 (ligand)
chain: B2 chain
modifications: biotin on the N-terminal biotin acceptor peptide (coexpressed BirA)
notes: Made from the His6-thioredoxin-NK1 vector, digested with thrombin, purified on monomeric avidin; also called biotin-NK1; biotinylated NK1; not shown: 20 amino acid biotin acceptor peptide from the pDW464 plasmid (Duffy et al., 1998)
Consider B3, for which the “fold increase of the NK1-Met binding signal on addition of heparin” value in series [5] was over 200 fold. The “fold label beside the bar of NK1+MET with heparin (NK1-MET binding signal)” value in [6] worked out at 265 fold.

B4: wild type NK1 expressed in P. pastoris (Example 7) (ligand)
chain: B2 chain
notes: Lietha 2001
Turning to B4, in series [7], the dissociation constant (Kd) came to 183 nM.

B5: human NK1 mutant K85A/D123A in the R134G background (ligand)
chain: B2 chain with K58A, D96A, R107G
notes: made in the R134G background
B5: in [8], the concentration for half-maximal inhibition (IC50) stood at 75 nM.

B6: NK1 linker mutant LE (N127A), P. pastoris (ligand)
chain: B2 chain with N100A
In the case of B6, the Kd in [7] turned out to be 83 nM.

B7: NK1 double mutant LG (D123A:N127A), P. pastoris (ligand)
chain: B2 chain with D96A, N100A
B7: in series [9], the “fold reduced MET binding affinity” value is over 100 fold.

B8: human NK1 mutant Y124A in the R134G background (ligand)
chain: B2 chain with Y97A, R107G
notes: also called Y124A NK1; Y124A mutant
Molecule B8 yielded an IC50 in [4] of 39 nM.

B9: NK1 linker mutant LC (Y124A), P. pastoris (ligand)
chain: B2 chain with Y97A
As for B9, the Kd in [7] is 149 nM.

B10: human NK1 mutant K85A/N127A in the R134G background (ligand)
chain: B2 chain with K58A, N100A, R107G
notes: made in the R134G background
In series [8], B10 came in with a half-maximal inhibitory concentration (IC50) of 97 nM.

B11: human NK1 mutant K85A in the R134G background (ligand)
chain: B2 chain with K58A, R107G
notes: also called K85A NK1
B11: in [4], the IC50 is 32 nM.

B12: NK1 double mutant LF (D123A:Y124A), P. pastoris (ligand)
chain: B2 chain with D96A, Y97A
With B12, the “fold reduced MET binding affinity” value in [9] is over 100 fold.

B13: NK1 K1 mutant K1D (V140A:I142A), P. pastoris (ligand)
chain: B2 chain with V113A, I115A
In turn, B13 displayed a Kd in series [7] of 160 nM.

B14: human NK1 mutant R134G (ligand)
chain: B2 chain with R107G
notes: Positions count on wild type NK1; also called human R134G mutant; human R134G NK1
Take B14: in series [2], the IC50 is about 30 nM. Besides, in [3], the “Met dimerization signal (AlphaScreen), 1 µM NK1 without heparin; fold label over the bar [b]” value amounted to 1 fold; the “Met dimerization signal (AlphaScreen, 6his-Met on donor and acceptor beads), 1 µM NK1 with heparin; fold label over the bar [b]” value is 68 fold.
